# Measured values published in the supplement of paper PMC6755084.
# B1: F1*; the commonest letter at each place (parent)
# chain: GAGACCGCAACTGAAAAGTTGTTATCACTTGTCGTAAGACACTTTGGATGGGTTGAAGTTCTGCACGTAGAAGCAAAAGGC
# Variants of: B1
# Assay: fraction ligated after 30 min (ligated reads / total reads); higher = more ligase activity
# Settings: with F1*sub RNA substrate (template-directed ligation), 42 °C
# How it was run: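 Ribozyme variants were transcribed with T7 from PCR-amplified oligo-pool templates and gel-purified. Ligated and unligated bands, separated on gel, were reverse transcribed with barcoded primers and sequenced on a MiSeq, with core bases filtered at quality ≥20. Fraction ligated per variant was computed as ligated reads divided by total reads.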
row,Variant,fraction ligated
1,T35G T44G,0.851
2,A48T A56T,0.0621
3,T49C,0.731
4,T25A T45G,0.029
5,T25A T45A,0.0271
6,A24G T30G,0.79
7,C28A T35G,0.812
8,C40G C42G,0.826
9,T29G C33G,0.865
10,C33A G38A,0.857
11,C42A A56C,0.794
12,A24G C26A,0.711
13,T43G A57G,0.803
14,T32C G38A,0.794
15,T32A A36T,0.852
16,T32A A36G,0.794
17,T23A C42T,0.817
18,A39G G47T,0.389
19,G50A A57G,0.251
20,T43C,0.81
21,T43A,0.855
22,A27C G31A,0.824
23,T23C T45C,0.208
24,C26G G55T,0.0355

row,Variant,fraction ligated
1,G46T A57T,0.754
2,A27T G46C,0.796
3,C40G T49G,0.763
4,C40G T49A,0.683
5,A24G T49A,0.742
6,T44A G47T,0.55
7,G55T A56C A57C,0.00348
8,C33G T45G,0.0204
9,T43C G55T,0.817
10,C26T T44A,0.845
11,A27C A37T,0.82
12,T32G A48G,0.75
13,A37T T45G,0.408
14,A41T T49G,0.749
15,A41T T49C,0.658
16,C28T C33G,0.809
17,A24C G34A,0.727
18,A24C G34T,0.648
19,G55C A56T A57T,0.0179
20,G31A T44C,0.801
21,C40T G47A,0.798
22,G31A T32C,0.811
23,G38C A39G,0.811
24,C40T T49A,0.792

row,Variant,fraction ligated
1,T30A A41T,0.859
2,G31A T43A,0.815
3,A27T A57G,0.794
4,T32A T45A,0.763
5,C28T A39G,0.796
6,T35C A39G,0.833
7,A37G C42T,0.857
8,A37G C42A,0.859
9,C33A T43G,0.799
10,A41C,0.775
11,T35C T49G,0.804
12,T30C T32G C33G G38C A39C A41G,0.831
13,T30C G31A,0.779
14,G34A G55C,0.801
15,T25C C26G,0.0807
16,C28T A41G,0.789
17,C33T G34A,0.855
18,G38T T43G,0.773
19,A36T A39C,0.821
20,G38A G47A,0.796
21,A41C A48G,0.783
22,T43G G46T,0.787
23,A39G T44C,0.849
24,G55A A56C A57T,0.151

row,Variant,fraction ligated
1,G34A A36G,0.846
2,T29G T43G,0.777
3,T25A G50T,0.536
4,A24C T29G,0.766
5,C42G G50C,0.27
6,C26T C42G,0.795
7,T30A G46T,0.805
8,T30A G46A,0.809
9,T29A A57G,0.818
10,C40A A41T,0.81
11,G34C A39G,0.807
12,A24C C26A,0.417
13,T29A T30G,0.828
14,T29A T30A,0.86
15,T45A G46T,0.403
16,T35C G46C,0.792
17,G38T G50A,0.386
18,G38T G50T,0.723
19,C26T G55A,0.811
20,G31C C40A,0.793
21,T35A T49G,0.817
22,T32G A36G,0.813
23,C40A G55A,0.807
24,A24G A57T,0.728

row,Variant,fraction ligated
1,C26G A56C,0.0241
2,G38T G47C,0.114
3,G31T G38T,0.801
4,G31T G38C,0.78
5,A24C,0.747
6,T32G G38A,0.822
7,A37C G50T,0.787
8,T32C G55C,0.664
9,A41T T44A,0.815
10,T29C A56C,0.758
11,A36T G55T,0.836
12,A36T G55C,0.817
13,T23G A48C,0.74
14,G31C A57T,0.793
15,T30C A37G,0.83
16,T30G A48T,0.796
17,T23C G46C,0.738
18,C33G A37G,0.847
19,T29C G46A,0.804
20,T45A G55A,0.274
21,T35G T49A,0.748
22,T23C C33T,0.839
23,G46A A48C,0.675
24,T23A G55C,0.292

row,Variant,fraction ligated
1,T30C G34T,0.787
2,A27T A56T,0.792
3,C40G T44A,0.841
4,C40A G50C,0.123
5,T35A G47C,0.221
6,T49G G50T,0.667
7,T30A A48C,0.741
8,C26T A57G,0.86
9,T23C G47C,0.0373
10,C28T G34T,0.802
11,C28A A36T,0.811
12,T45C A48T,0.00623
13,T23A T45G,0.0214
14,A24G T35C,0.776
15,T29A A48G,0.803
16,T32A G47T,0.104
17,G34C G55C,0.768
18,T45A,0.787
19,T45C T49G,0.0625
20,T35C T44G,0.823
21,T32G T49C,0.246
22,T23A A36C,0.826
23,C26G T45C,0.00783
24,T35G T45A,0.772

row,Variant,fraction ligated
1,T44C G50A,0.406
2,C28T A57C,0.744
3,T23G C33T,0.893
4,C40T C42A,0.845
5,A27C G34A,0.809
6,T43G T45A,0.763
7,A37C A56C,0.818
8,A27C G55C,0.355
9,A27C G55T,0.792
10,T32C T43A,0.779
11,C28G T30A,0.802
12,T29G G46C,0.786
13,T23G G38T,0.81
14,G31C A36C,0.357
15,A36G A48C,0.773
16,G31C A48G,0.389
17,A27C C40T,0.818
18,T25C C40A,0.524
19,G38T A56G,0.806
20,T23G G34A,0.802
21,A27G G31T,0.791
22,C26A T30A,0.791
23,C28T G55C,0.221
